Laboratory results from PMC9009071, “Pyruvate kinase, a metabolic sensor powering glycolysis, drives the metabolic control of DNA replication” (BMC Biology, 2022).

Columns and labels:
PykA = target: T1, PykA (Bacillus subtilis, UniProt P80885); assay: LDH-coupled NADH oxidation at […] nm, Michaelis-Menten fit; format: biochemical; details: 2 mM ADP, 10 mM MgCl2, 50 mM KCl, 10 mM Tris-HCl pH 7.5, 25 °C; no effector added
T1 construct: gene pyk; full length, 585 residues (1755 bp); N-terminal His-MBP tag removed by TEV; E. coli Rosetta(DE3); homotetramer
T1 sequence (P80885 2-585): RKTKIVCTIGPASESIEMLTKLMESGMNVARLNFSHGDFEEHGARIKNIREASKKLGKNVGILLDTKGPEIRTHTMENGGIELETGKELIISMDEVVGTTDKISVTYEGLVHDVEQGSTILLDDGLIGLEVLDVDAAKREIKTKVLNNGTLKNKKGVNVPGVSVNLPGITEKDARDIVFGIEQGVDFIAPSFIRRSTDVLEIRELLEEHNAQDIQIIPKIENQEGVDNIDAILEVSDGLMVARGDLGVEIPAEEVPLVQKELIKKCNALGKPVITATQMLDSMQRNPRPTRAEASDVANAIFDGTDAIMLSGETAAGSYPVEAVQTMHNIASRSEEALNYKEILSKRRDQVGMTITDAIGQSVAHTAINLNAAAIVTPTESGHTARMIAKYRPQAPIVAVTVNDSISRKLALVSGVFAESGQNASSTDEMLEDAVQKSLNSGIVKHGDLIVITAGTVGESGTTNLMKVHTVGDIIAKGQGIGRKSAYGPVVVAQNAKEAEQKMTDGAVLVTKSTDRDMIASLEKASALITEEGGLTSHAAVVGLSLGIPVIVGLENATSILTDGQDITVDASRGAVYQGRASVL

PykA (pyruvate kinase) = target: T2, PykA (pyruvate kinase) (Bacillus subtilis, UniProt P80885 1-585); assay: EMSA; 1,250 nM PykA tetramer, 1 nM DNA, 10 mM Mg2+, no DnaE; EMSA: 50 mM Tris-HCl pH 7.5, 50 mM NaCl, 10 mM MgCl2, 10 min at 37 °C, 1 nM DNA; details: protein: recombinant; tags: none (N-terminal His-MBP removed by TEV); chain copies: 4; label: 5'-32P on the 15mer; 15mer pairs with the 3' half of the 30mer; template 5' overhang 15 nt
T2 sequence: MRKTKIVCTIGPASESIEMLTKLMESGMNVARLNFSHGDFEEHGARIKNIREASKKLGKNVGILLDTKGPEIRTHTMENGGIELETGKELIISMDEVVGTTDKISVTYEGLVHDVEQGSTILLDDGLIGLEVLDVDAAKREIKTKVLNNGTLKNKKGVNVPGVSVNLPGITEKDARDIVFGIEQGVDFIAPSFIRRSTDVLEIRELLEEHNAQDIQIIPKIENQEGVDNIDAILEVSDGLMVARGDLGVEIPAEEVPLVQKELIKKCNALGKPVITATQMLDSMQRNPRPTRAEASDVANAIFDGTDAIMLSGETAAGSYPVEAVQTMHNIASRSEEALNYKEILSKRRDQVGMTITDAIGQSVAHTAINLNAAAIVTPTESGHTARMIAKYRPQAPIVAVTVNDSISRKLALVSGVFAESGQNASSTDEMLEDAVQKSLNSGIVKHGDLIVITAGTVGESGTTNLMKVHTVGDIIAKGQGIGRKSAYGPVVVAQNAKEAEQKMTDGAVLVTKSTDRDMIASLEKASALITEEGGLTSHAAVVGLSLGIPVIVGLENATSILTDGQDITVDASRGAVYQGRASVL

[1] = target: the molecule itself; assay: native MS; purified PykA, 4 uM, in 200 mM ammonium acetate pH 6.8; nano-electrospray on a modified Q-Tof; self-association (tetramer)
purified protein = substrate: C=C(OP(=O)(O)O)C(=O)O; assay: purified protein; format: biochemical, Bacillus subtilis; details: 2 mM ADP, 10 mM MgCl2, 50 mM KCl, 10 mM Tris-HCl pH 7.5, 25 °C, no effector added, Hill coefficient n = 0.8111

`C=C(OP(=O)(O)O)C(=O)O` [PEP] was tested, and the Km (PykA) was 1700 µM.

B1: 15mer primer annealed to 30mer template (dsDNA)
DNA 1: AAGGGGGTGTGTGTG
DNA 2: ACACACACACACACACACACACACCCCCTT
B1: no binding (PykA (pyruvate kinase)).

B2: Bacillus subtilis pyruvate kinase PykA (enzyme, UniProt P80885 1-585, looked up)
chain: T2 sequence
notes: Pyruvate kinase PykA of Bacillus subtilis; 1755 bp fragment carrying the pykA gene amplified from genomic DNA and cloned in p2CT; theoretical monomer mass 62,314.9 Da; The forward primer PyKAF starts at the codon for Arg2 (AGA AAA ACT ...), so the first methionine is probably absent; A few vector residues probably remain after TEV cleavage; also called full length PykA; BsuPykA; source: E. coli …
For B2, the “stoichiometry N” value [1] was 4.

B3: PykA (Bacillus subtilis subsp. subtilis str. 168) (protein)
chain: T1 sequence (P80885 2-585)
notes: full length, 585 residues (1755 bp); N-terminal His-MBP tag removed by TEV; E. coli Rosetta(DE3); homotetramer
B3 showed a K0.5 (purified protein) of 2.7 mM.
